Source: article PMC11324310

Biological target: C-t FLAG-tagged WT-RELN (mouse) (UniProt Q60841)
Test: immunoblot in non-reducing conditions (SDS-PAGE); culture media of HEK293T cells coexpressing FLAG-WT-RELN and monoallelic variants; non-reducing conditions

## C-t FLAG-tagged WT-RELN, Q60841 27-3461
  stoichiometry N: 2
